T1: human complement C1s enzyme (activated C1s) (human, UniProt P09871 16-437; P09871 438-688)
T1 construct: Bought from Complement Technology; Disulfide-linked heterodimer; Biotinylated with EZ-Link Sulfo-NHS-LC-LC-Biotin when captured in BLI; also called active C1s; aC1s
T1 sequence 1: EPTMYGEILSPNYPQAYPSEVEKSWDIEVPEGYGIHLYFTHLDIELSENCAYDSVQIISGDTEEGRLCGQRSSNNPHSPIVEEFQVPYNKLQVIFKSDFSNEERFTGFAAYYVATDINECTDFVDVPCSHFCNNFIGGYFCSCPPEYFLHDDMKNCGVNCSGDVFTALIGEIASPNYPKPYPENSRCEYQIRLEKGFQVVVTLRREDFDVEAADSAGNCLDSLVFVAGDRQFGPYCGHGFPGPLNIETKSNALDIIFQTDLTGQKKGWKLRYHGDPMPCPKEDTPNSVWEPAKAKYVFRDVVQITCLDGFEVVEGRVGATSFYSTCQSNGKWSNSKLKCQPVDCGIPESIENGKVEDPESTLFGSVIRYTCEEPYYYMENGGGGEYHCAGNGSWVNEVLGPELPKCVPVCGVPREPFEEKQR
T1 sequence 2: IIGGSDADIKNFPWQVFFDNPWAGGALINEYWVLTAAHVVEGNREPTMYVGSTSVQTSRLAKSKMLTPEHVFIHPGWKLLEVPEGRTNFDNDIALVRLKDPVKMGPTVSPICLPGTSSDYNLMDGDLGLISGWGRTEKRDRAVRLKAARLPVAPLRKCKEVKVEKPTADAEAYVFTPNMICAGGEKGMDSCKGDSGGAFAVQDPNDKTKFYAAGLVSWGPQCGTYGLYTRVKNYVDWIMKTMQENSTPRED


Experiments:
[1] = target: T1, human complement C1s enzyme (activated …); test: BLI dual target engagement: one target captured, then protein, then the other target
Excerpt: (§1) Bio-layer interferometry (BLI) was used to assess the recombinant proteins' target engagement to and binding affinity for complement C1s enzyme (active C1s or “C1s” herein) and factor Bb (Bb) (Complement Technology, Tyler, TX, USA). C1s and Bb were biotinylated with EZ-Link™ Sulfo-NHS-LC-LC-Biotin (Thermo Fisher, Waltham, MA, USA) according to manufacturer instructions. Biotinylated C1s or Bb was loaded on Octet® Streptavidin (SA) Biosensors (Sartorius, Göttingen, Germany), followed by a concentration range of purified proteins. To assess dual target engagement, biotinylated active C1s or Bb was loaded onto sensors, followed by purified proteins (“first association phase”), followed by the non-captured complement target (Bb or active C1s, non-biotinylated; “second association phase”). The assays were performed at 30° C. using PBS with 0.1% Tween 20 as a diluent (FIG. 3).

[2] = target: T2, human complement factor Bb (human, UniProt P00751 260-764); test: as above
T2 construct: Bought from Complement Technology; Biotinylated with EZ-Link Sulfo-NHS-LC-LC-Biotin when captured in BLI; also called FBb
Excerpt: as §1

[3] = target: T1, human complement C1s enzyme (activated …); test: BLI (Octet), biotinylated target on streptavidin sensor
Excerpt: as §1

[4] = target: T2, human complement factor Bb; test: as above
Excerpt: as §1

[5] = target: T1, human complement C1s enzyme (activated …); test: cell-based or functional assay
[6] = target: T2, human complement factor Bb; test: cell-based or functional assay
[7] = target: T1, human complement C1s enzyme (activated …); test: BLI (Octet), biotinylated target on streptavidin sensor; protein purified to >98%
Excerpt: as §1

[8] = target: T2, human complement factor Bb; test: as above
Excerpt: as §1

[9] = target: T1, human complement C1s enzyme (activated …); test: cell-based or functional assay; remark: listed apart in the source
[10] = target: T2, human complement factor Bb; test: cell-based or functional assay; remark: listed apart in the source
[11] = target: T1, human complement C1s enzyme (activated …); test: cell-based or functional assay; remark: listed apart in the source
[12] = target: T2, human complement factor Bb; test: cell-based or functional assay; remark: listed apart in the source
[13] = target: T1, human complement C1s enzyme (activated …); test: cell-based or functional assay; remark: listed apart in the source
[14] = target: T2, human complement factor Bb; test: cell-based or functional assay; remark: listed apart in the source
[15] = target: T1, human complement C1s enzyme (activated …); test: BLI (Octet), biotinylated target on streptavidin sensor; partially purified protein
Excerpt: as §1
(§2) The third expression construct, construct #9 (FIGS. 2B and 21), is composed of a bidirectional minCBA promoter driving expression of separate transcripts encoding human codon-optimized αBb scFab or αC1s scFab [αC1s scFab+αBb scFab], each followed by a bGH poly (A) signal.

[16] = target: T2, human complement factor Bb; test: as above
Excerpt: as §1, §2

T2 sequence (P00751 260-764): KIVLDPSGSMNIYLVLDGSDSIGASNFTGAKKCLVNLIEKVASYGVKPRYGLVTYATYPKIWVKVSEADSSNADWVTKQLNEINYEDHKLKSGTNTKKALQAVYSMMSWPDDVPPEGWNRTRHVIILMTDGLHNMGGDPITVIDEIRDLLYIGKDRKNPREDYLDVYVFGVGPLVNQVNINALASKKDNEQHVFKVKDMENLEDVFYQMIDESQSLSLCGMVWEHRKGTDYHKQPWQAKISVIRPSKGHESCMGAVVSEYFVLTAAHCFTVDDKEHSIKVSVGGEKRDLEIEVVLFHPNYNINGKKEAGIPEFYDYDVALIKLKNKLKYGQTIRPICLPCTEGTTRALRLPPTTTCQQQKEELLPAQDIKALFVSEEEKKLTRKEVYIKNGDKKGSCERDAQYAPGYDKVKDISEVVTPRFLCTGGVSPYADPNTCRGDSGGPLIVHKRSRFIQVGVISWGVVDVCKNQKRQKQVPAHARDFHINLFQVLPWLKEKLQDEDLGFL

Row | Binder | binding result [1] | binding result [2] | Kd [3] | koff [3] | kon [3] | Kd [4] | koff [4] | kon [4] | IC50 CP (Wieslab) [5] | IC50 AP (Wieslab) [6] | Kd [7] | Kd [8] | Wieslab CP IC50, fold of purified anti-C1s Fab [9] | Wieslab AP IC50, fold of purified anti-Bb Fab [10] | IC50 CP Wieslab EIA [11] | IC50 AP Wieslab EIA [12] | CP IC50 (Wieslab) [13] | AP IC50 (Wieslab) [14] | Kd [15] | Kd [16]
1 | construct #17: αC1s F2A Fab-(G4S)3-αBb scFab (bispecific antibody) light: DIVLTQSPDSLAVSLGERATISCKASQSVDYDGDSYMNWYQQKPGQPPKILIYDASNLESGIPARFSGSGSGTDFTLTISSLEPEDFAIYYCQQSNEDPWTFGGGTKVEIKRTVAAPSVFIFPPSDEQLKSGTASVVCLLNNFYPREAKVQWKVDNALQSGNSQESVTEQDSKDSTYSLSSTLTLSKADYEKHKVYACEVTHQGLSSPVTKSFNRGEC QVQLVQSGAEVKKPGASVKLSCTASGFNIKDDYIHWVKQAPGQGLEWIGRIDPADGHTKYAPKFQVKVTITADTSTSTAYLELSSLRSEDTAVYYCARYGYGREVFDYWGQGTTVTVSSASTKGPSVFPLAPCSRSTSESTAALGCLVKDYFPEPVTVSWNSGALTSGVHTFPAVLQSSGLYSLSSVVTVPSSSLGTKTYTCNVDHKPSNTKVDKRVGGGGSGGGGSGGGGSDIQMTQSPSTLSASVGDRVTITCKASQDVGTAVAWYQQKPGKAPKLLIYWASTRHTGVPDRFSGSGSGTDFTLTISSLQAEDFAVYFCHQHSSNPLTFGQGTKLEIKRTVAAPSVFIFPPSDEQLKSGTASVVCLLNNFYPREAKVQWKVDNALQSGNSQESVTEQDSKDSTYSLSSTLTLSKADYEKHKVYACEVTHQGLSSPVTKSFNRGECGGGGSGGGGSGGGGSGGGGSGGGGSGGGGSGGGGSEVQLVESGGGLVKPGGSLRLSCAASGFTFSNYAMSWVRQAPGKRLEWVATISNRGSYTYYPDSVKGRFTISRDNAKNSLYLQMNSLRAEDTALYYCARERPMDYWGQGTLVTVSSASTKGPSVFPLAPCSRSTSESTAALGCLVKDYFPEPVTVSWNSGALTSGVHTFPAVLQSSGLYSLSSVVTVPSSSLGTKTYTCNVDHKPSNTKVDKRV | binds | binds | – | – | – | – | – | – | – | – | – | – | – | – | – | – | – | – | – | –
2 | construct #18: αC1s GT2A Fab-(G4S)3-αBb scFab (bispecific antibody) light: DIVLTQSPDSLAVSLGERATISCKASQSVDYDGDSYMNWYQQKPGQPPKILIYDASNLESGIPARFSGSGSGTDFTLTISSLEPEDFAIYYCQQSNEDPWTFGGGTKVEIKRTVAAPSVFIFPPSDEQLKSGTASVVCLLNNFYPREAKVQWKVDNALQSGNSQESVTEQDSKDSTYSLSSTLTLSKADYEKHKVYACEVTHQGLSSPVTKSFNRGEC QVQLVQSGAEVKKPGASVKLSCTASGFNIKDDYIHWVKQAPGQGLEWIGRIDPADGHTKYAPKFQVKVTITADTSTSTAYLELSSLRSEDTAVYYCARYGYGREVFDYWGQGTTVTVSSASTKGPSVFPLAPCSRSTSESTAALGCLVKDYFPEPVTVSWNSGALTSGVHTFPAVLQSSGLYSLSSVVTVPSSSLGTKTYTCNVDHKPSNTKVDKRVGGGGSGGGGSGGGGSDIQMTQSPSTLSASVGDRVTITCKASQDVGTAVAWYQQKPGKAPKLLIYWASTRHTGVPDRFSGSGSGTDFTLTISSLQAEDFAVYFCHQHSSNPLTFGQGTKLEIKRTVAAPSVFIFPPSDEQLKSGTASVVCLLNNFYPREAKVQWKVDNALQSGNSQESVTEQDSKDSTYSLSSTLTLSKADYEKHKVYACEVTHQGLSSPVTKSFNRGECGGGGSGGGGSGGGGSGGGGSGGGGSGGGGSGGGGSEVQLVESGGGLVKPGGSLRLSCAASGFTFSNYAMSWVRQAPGKRLEWVATISNRGSYTYYPDSVKGRFTISRDNAKNSLYLQMNSLRAEDTALYYCARERPMDYWGQGTLVTVSSASTKGPSVFPLAPCSRSTSESTAALGCLVKDYFPEPVTVSWNSGALTSGVHTFPAVLQSSGLYSLSSVVTVPSSSLGTKTYTCNVDHKPSNTKVDKRV | binds | binds | – | – | – | – | – | – | – | – | – | – | – | – | – | – | – | – | – | –
3 | construct #12: αBb scFab-(G4S)3-αC1s scFab-CM (bispecific antibody, Residues 1-20 were left out as the signal peptide, which is marked by boldface only) DIQMTQSPSTLSASVGDRVTITCKASQDVGTAVAWYQKKPGKAPKLLIYWASTRHTGVPDRFSGSGSGTDFTLTISSLQAEDFAVYFCHQHSSNPLTFGQGTKLEIKRTVAAPAVFIFPPSDEQLKSGTASVVCLLKNFYPREAKVQWKVDNALQSGNSQESVTEQDSKDSTYSLSSTLTLSKADYEKHKVYACEVTHQGLSSPVTKSFNRGECGGGGSGGGGSGGGGSGGGGSGGGGSGGGGSGGGGSEVQLVESGGGLVKPGGSLRLSCAASGFTFSNYAMSWVREAPGKRLEWVATISNRGSYTYYPDSVKGRFTISRDNAKNSLYLQMNSLRAEDTALYYCARERPMDYWGQGTLVTVSSASTKGPSVFPLAPCSRSTSESTAALGCLVKDYFPEPVTVSWNSGALTSGVHTFPAVLQSSGLYSLSSVVEVPSSSLGTKTYTCNVDHKPSNTKVDKRVGGGGGSGGGGSGGGGSDIVLTQSPDSLAVSLGERATISCKASQSVDYDGDSYMNWYQEKPGQPPKILIYDASNLESGIPARFSGSGSGTDFTLTISSLEPEDFAIYYCQQSNEDPWTFGGGTKVEIKRTVAAPSVFIFPPSDEQLKSGTASVVCLLNNFYPREAKVQWKVDNALQSGNSQESVTEQDSKDSTYSLSSTLTLSKADYEKHKVYACEVTHQGLSSPVTKSFNRGECGGGGSGGGGSGGGGSGGGGSGGGGSGGGGSGGGGSQVQLVQSGAEVKKPGASVKLSCTASGFNIKDDYIHWVKKAPGQGLEWIGRIDPADGHTKYAPKFQVKVTITADTSTSTAYLELSSLRSEDTAVYYCARYGYGREVFDYWGQGTTVTVSSASTKGPSVFPLAPCSRSTSESTAALGCLVKDYFPEPVTVSWNSGALTSGVHTFPAVLQSSGLYSLSSVVTVPSSSLGTKTYTCNVDHKPSNTKVDKRV | – | – | 3.6 nM | 0.00065 s⁻¹ | 180000 M⁻¹ s⁻¹ | 6.6 nM | 0.00055 s⁻¹ | 80000 M⁻¹ s⁻¹ | 84.4 nM | 702 nM | 5.4 nM | 1.5 nM | ~14 fold | ~7 fold | 10.4 nM | 428 nM | 84.4 nM | 702 nM | 3.6 nM | 6.6 nM

Reference: US20240401082A1 (Sanofi, published 2024)
